Laboratory results: patent US20140227179A1

What was measured:
[1] = target: MUC5ac mucin (PAM4 antigen) from CaPan1 human pancreatic carcinoma (human) (UniProt P98088); test: sandwich EIA, hPAM4 capture of antigen from CPM1, MAb probe at 10 µg/mL (FIG. 26)
[2] = target: MUC5ac mucin (PAM4 antigen) from CaPan1 human pancreatic carcinoma (human) (UniProt P98088); test: inhibition EIA on CPM1-coated plates; competitor hPAM4 at […]
[3] = target: MUC5ac mucin (PAM4 antigen) from CaPan1 human pancreatic carcinoma (human) (UniProt P98088); test: radiolabeled TF10 with MUC5ac, size exclusion chromatography (not shown)
[4] = target: MUC5ac mucin (PAM4 antigen) from CaPan1 human pancreatic carcinoma (human) (UniProt P98088); test: size exclusion chromatography of TF10/111In-IMP-288 with excess mucin
[5] = target: IMP-288 DOTA-di-HSG hapten-peptide; test: 111In-IMP-288 with TF10, size exclusion chromatography (not shown)
[6] = target: MUC5ac mucin (PAM4 antigen) from CaPan1 human pancreatic carcinoma (human) (UniProt P98088); test: ELISA on target mucin antigen (FIG. 9)

Substance | Kd [1] | ICmax (maximal % inhibition) [2] | immunoreactive fraction bound [3] | percent of TF10-bound 111In-IMP-288 shifted by mucin [4] | percent of peptide bound [5] | EC50 [6]
45M1 anti-MUC5ac MAb (antibody) | 14.3 µg/mL | 25.5% |  |  |  | 
TF10 bispecific ([hPAM4]2 x h679) DNL construct (bispecific antibody) |  |  | 87% | 92% | 90% | 1.42 nM
